# System: Escherichia coli TOP10
# Assay: shrunken log2 fold change of peptide-encoding DNA abundance (4.5 h post-induction vs induction); higher = less antimicrobial activity (less host growth inhibition)
# Details: time post-induction: 4.5 h; library: site-saturation at positions 5, 18, 19, 20
# 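Note: peptides expressed intracellularly from a pBAD plasmid library in pooled LB shake-flask culture, induced with 0.3% L-arabinose, DNA abundance read by NGS, three biological replicates, DESeq2 with apeglm shrinkage.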
row,Sequence,shrunken log2 fold change
1,RRIRERPPRLPRPRPRPPLAPRP,0.433
2,RRIRERPPRLPRPRPRPPMIPRP,-0.0526
3,RRIRERPPRLPRPRPRPPPLPRP,0.222
4,RRIRERPPRLPRPRPRPPPVPRP,0.261
5,RRIRERPPRLPRPRPRPPRNPRP,0.0296
6,RRIRERPPRLPRPRPRPPSRPRP,0.577
7,RRIRERPPRLPRPRPRPPSTPRP,-0.136
8,RRIRERPPRLPRPRPRPPTRPRP,0.254
9,RRIRERPPRLPRPRPRPPVEPRP,0.268
10,RRIRERPPRLPRPRPRPPYTPRP,-0.176
11,RRIRERPPRLPRPRPRPQAEPRP,-0.0297
12,RRIRERPPRLPRPRPRPQANPRP,-0.0396
13,RRIRERPPRLPRPRPRPQCHPRP,-0.449
14,RRIRERPPRLPRPRPRPQDAPRP,0.0745
15,RRIRERPPRLPRPRPRPQFDPRP,-0.111
16,RRIRERPPRLPRPRPRPQFIPRP,-0.014
17,RRIRERPPRLPRPRPRPQHGPRP,-0.102
18,RRIRERPPRLPRPRPRPQHHPRP,-0.771
19,RRIRERPPRLPRPRPRPQICPRP,0.172
20,RRIRERPPRLPRPRPRPQKCPRP,-0.202
21,RRIRERPPRLPRPRPRPQKDPRP,-0.298
22,RRIRERPPRLPRPRPRPQKYPRP,-1.15

row,Sequence,shrunken log2 fold change
1,RRIRERPPRLPRPRPRPQNGPRP,-0.0634
2,RRIRERPPRLPRPRPRPQPHPRP,-0.261
3,RRIRERPPRLPRPRPRPQPKPRP,-0.077
4,RRIRERPPRLPRPRPRPQPQPRP,-0.0713
5,RRIRERPPRLPRPRPRPQRWPRP,0.117
6,RRIRERPPRLPRPRPRPQSHPRP,-0.268
7,RRIRERPPRLPRPRPRPQSWPRP,0.104
8,RRIRERPPRLPRPRPRPQTDPRP,-0.323
9,RRIRERPPRLPRPRPRPQTHPRP,-0.359
10,RRIRERPPRLPRPRPRPQTIPRP,-0.378
11,RRIRERPPRLPRPRPRPQTYPRP,-1.1
12,RRIRERPPRLPRPRPRPQVSPRP,-0.0262
13,RRIRERPPRLPRPRPRPQWDPRP,0.0698
14,RRIRERPPRLPRPRPRPQYCPRP,-0.0302
15,RRIRERPPRLPRPRPRPQYMPRP,-0.213
16,RRIRERPPRLPRPRPRPRARPRP,0.233
17,RRIRERPPRLPRPRPRPRCCPRP,-0.234
18,RRIRERPPRLPRPRPRPRCKPRP,-0.0657
19,RRIRERPPRLPRPRPRPRFAPRP,0.0577
20,RRIRERPPRLPRPRPRPRGAPRP,0.59
21,RRIRERPPRLPRPRPRPRGYPRP,-0.1
22,RRIRERPPRLPRPRPRPRHPPRP,-0.289

row,Sequence,shrunken log2 fold change
1,RRIRERPPRLPRPRPRPRHSPRP,-0.137
2,RRIRERPPRLPRPRPRPRINPRP,-0.427
3,RRIRERPPRLPRPRPRPRIRPRP,0.0747
4,RRIRERPPRLPRPRPRPRLAPRP,0.269
5,RRIRERPPRLPRPRPRPRMEPRP,-0.00684
6,RRIRERPPRLPRPRPRPRPCPRP,-0.0205
7,RRIRERPPRLPRPRPRPRRGPRP,0.142
8,RRIRERPPRLPRPRPRPRSIPRP,0.0163
9,RRIRERPPRLPRPRPRPRTWPRP,-0.149
10,RRIRERPPRLPRPRPRPRVFPRP,0.138
11,RRIRERPPRLPRPRPRPRVNPRP,-0.157
12,RRIRERPPRLPRPRPRPRVPPRP,0.425
13,RRIRERPPRLPRPRPRPRVQPRP,0.00573
14,RRIRERPPRLPRPRPRPRVSPRP,0.0184
15,RRIRERPPRLPRPRPRPRWCPRP,0.0485
16,RRIRERPPRLPRPRPRPRWHPRP,0.0135
17,RRIRERPPRLPRPRPRPRYFPRP,-0.54
18,RRIRERPPRLPRPRPRPSAWPRP,0.0177
19,RRIRERPPRLPRPRPRPSCIPRP,-0.455
20,RRIRERPPRLPRPRPRPSCRPRP,-0.249
21,RRIRERPPRLPRPRPRPSDAPRP,-0.0474
22,RRIRERPPRLPRPRPRPSEAPRP,0.134

row,Sequence,shrunken log2 fold change
1,RRIRERPPRLPRPRPRPSGKPRP,-0.119
2,RRIRERPPRLPRPRPRPSHSPRP,-1.37
3,RRIRERPPRLPRPRPRPSHTPRP,-0.248
4,RRIRERPPRLPRPRPRPSITPRP,-1.36
5,RRIRERPPRLPRPRPRPSIWPRP,-0.0411
6,RRIRERPPRLPRPRPRPSKRPRP,-0.00769
7,RRIRERPPRLPRPRPRPSLLPRP,-0.208
8,RRIRERPPRLPRPRPRPSQEPRP,-0.0844
9,RRIRERPPRLPRPRPRPSRSPRP,0.116
10,RRIRERPPRLPRPRPRPSSCPRP,-0.0232
11,RRIRERPPRLPRPRPRPSSLPRP,-0.223
12,RRIRERPPRLPRPRPRPSVCPRP,-0.0246
13,RRIRERPPRLPRPRPRPSWAPRP,-0.24
14,RRIRERPPRLPRPRPRPSYPPRP,-0.877
15,RRIRERPPRLPRPRPRPSYQPRP,-0.469
16,RRIRERPPRLPRPRPRPTDAPRP,0.0786
17,RRIRERPPRLPRPRPRPTEFPRP,0.000688
18,RRIRERPPRLPRPRPRPTEQPRP,-0.00926
19,RRIRERPPRLPRPRPRPTGLPRP,0.235
20,RRIRERPPRLPRPRPRPTGRPRP,-0.146
21,RRIRERPPRLPRPRPRPTGSPRP,-0.211
22,RRIRERPPRLPRPRPRPTICPRP,-0.342

row,Sequence,shrunken log2 fold change
1,RRIRERPPRLPRPRPRPTIQPRP,-0.0576
2,RRIRERPPRLPRPRPRPTKDPRP,-0.239
3,RRIRERPPRLPRPRPRPTNYPRP,-0.068
4,RRIRERPPRLPRPRPRPTRHPRP,0.157
5,RRIRERPPRLPRPRPRPTRRPRP,0.059
6,RRIRERPPRLPRPRPRPTTCPRP,0.0164
7,RRIRERPPRLPRPRPRPTTKPRP,0.0648
8,RRIRERPPRLPRPRPRPTTVPRP,-0.147
9,RRIRERPPRLPRPRPRPTVQPRP,-0.157
10,RRIRERPPRLPRPRPRPTWAPRP,0.115
11,RRIRERPPRLPRPRPRPTWCPRP,3.3
12,RRIRERPPRLPRPRPRPVAHPRP,0.0475
13,RRIRERPPRLPRPRPRPVAIPRP,-0.121
14,RRIRERPPRLPRPRPRPVAKPRP,0.197
15,RRIRERPPRLPRPRPRPVASPRP,-0.0471
16,RRIRERPPRLPRPRPRPVDCPRP,0.0769
17,RRIRERPPRLPRPRPRPVEDPRP,0.0178
18,RRIRERPPRLPRPRPRPVEFPRP,-0.309
19,RRIRERPPRLPRPRPRPVGEPRP,-0.0892
20,RRIRERPPRLPRPRPRPVGYPRP,0.161
21,RRIRERPPRLPRPRPRPVHIPRP,-0.202

# Reference: the supplement of paper PMC9112550, “Optimization of the antimicrobial peptide Bac7 by deep mutational scanning” (BMC Biology, 2022)
